The target in one test is NKp30-Fc (human) (UniProt O14931). The experiment in a line: BLI.
A further test deals with CC3-Fc (human) (UniProt O14931). The experiment in a line: BLI. (In BLI a coated tip is dipped into the sample, and binding shifts an interference pattern.)

What is called Kd is the constant that tells how readily two partners part at equilibrium. A high value points to a looser complex.

On to “Soluble monomeric B7H6-His (from UniProt Q68D85 25-262) (domain or fragment)”, for which, in the test with NKp30-Fc (human), the Kd is 1300 nM.

B1: Soluble monomeric B7H6-His (domain or fragment)
chain: DLKVEMMAGGTQITPLNDNVTIFCNIFYSQPLNITSMGITWFWKSLTFDKEVKVFEFFGDHQEAFRPGAIVSPWRLKSGDASLRLPGIQLEEAGEYRCEVVVTPLKAQGTVQLEVVASPASRLLLDQVGMKENEDKYMCESSGFYPEAINITWEKQTQKFPHPIEISEDVITGPTIKNMDGTFNVTSCLKLNSSQEDPGTVYQCVVRHASLHTPLRSNFTLTAARHSLSETEKTDNFS
Regarding B1, the Kd with CC3-Fc (human) stood at 680 nM.

For the origin of these results see paper PMC8626535.
